In assay [1] the target is T1, human NaPi2b on NaPi2b-positive cell lines OVCAR-3 and HCC-78 (human, UniProt O95436 1-690).
T1 sequence: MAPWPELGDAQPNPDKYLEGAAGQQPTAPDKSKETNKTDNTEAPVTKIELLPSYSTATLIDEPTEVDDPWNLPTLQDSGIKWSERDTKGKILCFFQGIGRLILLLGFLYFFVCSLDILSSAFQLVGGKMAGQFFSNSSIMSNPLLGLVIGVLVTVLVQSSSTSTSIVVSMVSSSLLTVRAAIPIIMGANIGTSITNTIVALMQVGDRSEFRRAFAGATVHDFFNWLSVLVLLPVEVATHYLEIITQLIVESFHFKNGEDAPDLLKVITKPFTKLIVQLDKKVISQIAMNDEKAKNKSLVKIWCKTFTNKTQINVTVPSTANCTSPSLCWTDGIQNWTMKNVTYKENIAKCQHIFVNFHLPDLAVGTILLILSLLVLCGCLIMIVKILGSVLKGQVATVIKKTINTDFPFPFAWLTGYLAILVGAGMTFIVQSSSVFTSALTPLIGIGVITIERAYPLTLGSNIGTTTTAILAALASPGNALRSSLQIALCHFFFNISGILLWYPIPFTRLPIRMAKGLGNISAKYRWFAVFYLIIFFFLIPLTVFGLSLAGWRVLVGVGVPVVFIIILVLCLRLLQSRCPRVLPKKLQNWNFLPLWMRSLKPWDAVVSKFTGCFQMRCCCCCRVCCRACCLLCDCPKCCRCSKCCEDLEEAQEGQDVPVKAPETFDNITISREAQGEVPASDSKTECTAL
Description: cell-based or functional assay.

Assay [2] deals with T2, recombinant human FcγRIIa/CD32 H131 (Lumit binding immunoassay) (human, UniProt P12318 34-217, limits assumed).
T2 construct: Kit reagent (Promega), used as an FcγR-SmBiT fusion; also called FcγRIIa/CD32 R131/H131 polymorphism
T2 sequence (looked up): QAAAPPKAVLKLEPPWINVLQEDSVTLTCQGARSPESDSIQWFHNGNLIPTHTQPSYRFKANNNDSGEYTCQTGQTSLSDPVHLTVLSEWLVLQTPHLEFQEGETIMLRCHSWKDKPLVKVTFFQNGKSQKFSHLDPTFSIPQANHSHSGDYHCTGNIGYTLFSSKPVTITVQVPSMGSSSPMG
Description: Lumit FcγRIIa (CD32) (H131) Binding Immunoassay (Promega), competition with Tracer-LgBiT for FcγR-SmBiT, luminescence, n=1; left panel.
Description: Luminescence was measured on a microplate reader Infinite M200 Pro (Tecan).
FcγR interaction studies were performed using the Lumit™ FcγR Binding Immunoassays (FcγRn, FcγRI, FcγRIIa/CD32 R131/H131 polymorphism, FcγRIIIa/CD16 V158/F158 polymorphism; Promega) based on a competition principle and luciferase detection according to the manufacturer's instructions. […] Luminescence is measured on a microplate reader Infinite M200 Pro (Tecan)._Graphs show n=1.

Experimental findings from patent US20240190958A1 (TUBULIS, published 2024) are described below.

B1: AV25-P5(PEG24)-VC-PAB-Exatecan DAR8 ADC (antibody, human IgG1, kappa, L234A L235A)
heavy: not shown
light: DIQMTQSPSSLSASVGDRVTITCSASQDIGNFLNWYQQKPGKTVKVLIYYASSLYSGVPSRFSGSGSGTDYTLTISSLQPEDFATYYCQQYSKLPLTFGQGTKLELKRTVAAPSVFIFPPSDEQLKSGTASVVCLLNNFYPREAKVQWKVDNALQSGNSQESVTEQDSKDSTYSLSSTLTLSKADYEKHKVYACEVTHQGLSSPVTKSFNRGEC
modifications: P5(PEG24)-VC-PAB-Exatecan linker-payload on the interchain cysteine residue (light chain adduct 1; DAR8 in total); P5(PEG24)-VC-PAB-Exatecan linker-payload on interchain cysteine residues (heavy chain adducts up to 3; DAR8 in total)
notes: also called TUB-040
Regarding B1, the “cytotoxicity (resazurin assay) on HCC-78, fold lower IC50 against the anti-Napi2b comparison ADC” value in assay [1] came to 15.5 fold. Moreover, in assay [2], the binding result is recorded as “no binding (tested: 250 µg/ml)”.

B2: AV25 mAb (LALA-silenced, AV25 HC-LALA) (antibody, human IgG1, kappa, L234A L235A)
heavy: not shown
light: B1 light
notes: IgG1 kappa; also called unmodified AV25 mAb
B2: the binding result in assay [2] was “no binding (tested: 250 µg/ml)”.
